Assay results from publication PMC8456996.
Where two headings read alike, the source gives them in different places.

Key:
[1] = target: T1, Thioredoxin (hsTXN) (Homo sapiens, UniProt P10599 1-105); assay: NMR HSQC titration
T1 sequence: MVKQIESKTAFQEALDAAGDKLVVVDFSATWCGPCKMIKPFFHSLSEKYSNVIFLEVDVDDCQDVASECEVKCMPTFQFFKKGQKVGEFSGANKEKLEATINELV

[2] = target: T2, Syntrophin-beta-1 PDZ domain (Homo sapiens, UniProt Q13884 111-196); assay: NMR HSQC titration
T2 sequence: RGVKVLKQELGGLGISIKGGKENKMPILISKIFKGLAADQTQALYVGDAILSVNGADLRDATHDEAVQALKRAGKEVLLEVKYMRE

[3] = target: FPR1 (FK506-binding protein 1) (Saccharomyces cerevisiae, UniProt P20081 1-114); assay: NMR HSQC titration
FPR1 (FK506-binding protein 1), sequence (P20081 whole entry, the tested form may be a part): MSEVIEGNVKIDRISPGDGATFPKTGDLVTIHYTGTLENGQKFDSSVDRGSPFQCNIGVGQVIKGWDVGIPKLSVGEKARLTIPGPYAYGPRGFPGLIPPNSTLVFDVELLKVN

[4] = target: TRIM25 PRY/SPRY domain (UniProt Q14258 439-630); assay: NMR HSQC titration
TRIM25 PRY/SPRY domain, sequence (Q14258 439-630): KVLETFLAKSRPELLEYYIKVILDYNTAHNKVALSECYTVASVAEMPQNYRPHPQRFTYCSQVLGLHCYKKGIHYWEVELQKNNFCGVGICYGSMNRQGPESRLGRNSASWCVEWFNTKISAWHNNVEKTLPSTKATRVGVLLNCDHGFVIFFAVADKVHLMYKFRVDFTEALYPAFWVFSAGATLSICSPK

[5] = target: T2, Syntrophin-beta-1 PDZ domain; assay: NMR HSQC titration; remark: listed apart in the source
[6] = target: T1, Thioredoxin (hsTXN); assay: NMR HSQC titration; remark: listed apart in the source
[7] = target: T3, End binding protein 1 (dmEB1) (Drosophila melanogaster, UniProt Q0E9N1 1-291); assay: EMSA
T3 sequence: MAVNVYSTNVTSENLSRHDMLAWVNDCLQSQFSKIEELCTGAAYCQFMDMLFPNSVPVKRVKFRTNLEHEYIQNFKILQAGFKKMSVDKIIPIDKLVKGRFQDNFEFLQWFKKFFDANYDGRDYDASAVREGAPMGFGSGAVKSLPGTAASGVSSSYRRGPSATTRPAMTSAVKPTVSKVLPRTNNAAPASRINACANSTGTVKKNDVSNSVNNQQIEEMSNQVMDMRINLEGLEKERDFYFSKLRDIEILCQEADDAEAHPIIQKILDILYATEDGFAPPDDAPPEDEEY

Binder: AAAAAAAA (ssRNA) [poly(A) 8-mer]
- binding result [1]: no binding

Binder: CCCCCCCC (ssRNA) [poly(C) 8-mer]
- binding result [2]: no binding
- binding result [1]: no binding

Binder: UUUUUUUUU (ssRNA) [poly(U) 9-mer]
- binding result [3]: no binding

Binder: UUUUUUUUUUUUUUU (ssRNA) [poly(U) 15-mer]
- binding result [4]: binds

Binder: UUUUUUUU (ssRNA) [poly(U) 8-mer]
- binding result [5]: no binding
- binding result [6]: no binding

Binder: UUUUUUUUUUUUUUUUUUUUUUUUU (ssRNA) [poly(U) 25-mer, 32P probe]
- binding result [7]: binds
